In publication PMC4385502 (Molecular cell, 2015):

Biological target: the molecule itself
Assay: SEC

B1: RIG-I-TD (RIG-I triple deamidation mutant) (natural protein)
chain: MTTEQRRSLEAFQDYIRKTLDPTYILSYMAPWFREEEVQYIQAEKNNKGPMEAATLFLKFLLELQEEGWFRGFLDALDHAGYSGLYEAIESWDFKKIEKLEEYRLLLKRLQPEFKTRIIPTDIISDLSECLINQECEEILQICSTKGMMAGAEKLVECLLRSDKENWPKTLKLALEKERNKFSELWIVEKGIKDVETEDLEDKMETSDIQIFYQEDPECQNLSENSCPPSEVSDTNLYSPFKPRDYQLELALPAMKGKNTIICAPTGCGKTFVSLLICEHHLKKFPQGQKGKVVFFANQIPVYEQQKSVFSKYFERHGYRVTGISGATAENVPVEQIVENNDIIILTPQILVNNLKKGTIPSLSIFTLMIFDECHNTSKQHPYNMIMFNYLDQKLGGSSGPLPQVIGLTASVGVGDAKNTDEALDYICKLCASLDASVIATVKHDLEELEQVVYKPQKFFRKVESRISDKFKYIIAQLMRDTESLAKRICKDLENLSQIQNREFGTQKYEQWIVTVQKACMVFQMPDKDEESRICKALFLYTSHLRKYNDALIISEHARMKDALDYLKDFFSNVRAAGFDEIEQDLTQRFEEKLQELESVSRDPSNENPKLEDLCFILQEEYHLNPETITILFVKTRALVDALKNWIEGNPKLSFLKPGILTGRGKTNQNTGMTLPAQKCILDAFKASGDHNILIATSVADEGIDIAQCNLVILYEYVGNVIKMIQTRGRGRARGSKCFLLTSNAGVIEKEQINMYKEKMMNDSILRLQTWDEAVFREKILHIQTHEKFIRDSQEKPKPVPDKENKKLLCRKCKALACYTADVRVIEECHYTVLGDAFKECFVSRPHPKPKQFSSFEKRAKIFCARQNCSHDWGIHVKYKTFEIPVIKIESFVVEDIATGVQTLYSKWKDFHFEKIPFDPAEMSK
- binding result: binds
